# Reference: US20240027467A1 (VIB VZW, published 2024)
# B1: CA4375, EPEA-NbSyn2 (C-term. 6xHis) (VHH)
# VHH: QVQLQESGGGSVQAGGSLRLSCAASGIDSSSYCMGWFRQRPGKEREGVARINGLGGVKTAYADSVKDRFTISRDNAENTVYLQMNSLKPEDTAIYYCAAKFSPGYCGGSWSNFGYWGQGTQVTVSS
# notes: Selected against human alpha-synuclein; also called monovalent CA4375; EPEA-specific Nanobody
# B2: CA16388 FIX functionalized Nanobody trapper (MegaBody MbCA11143^YgjK, including C-terminal 6xHis+EPEA tag) (other)
# chain: QVQLVESGGGLVKEETQSGLNNYARVVEKGQYDSLEIPAQVAASWESGRDDAAVFGFIDKEQLDKYVANGGKRSDWTVKFAENRSQDGTLLGYSLLQESVDQASYMYSDNHYLAEMATILGKPEEAKRYRQLAQQLADYINTCMFDPTTQFYYDVRIEDKPLANGCAGKPIVERGKGPEGWSPLFNGAATQANADAVVKVMLDPKEFNTFVPLGTAALTNPAFGADIYWRGRVWVDQFWFGLKGMERYGYRDDALKLADTFFRHAKGLTADGPIQENYNPLTGAQQGAPNFSWSAAHLYMLYNDFFRKQASGGGSGGGGSGGGGSGNADNYKNVINRTGAPQYMKDYDYDDHQRFNPFFDLGAWHGHLLPDGPNTMGGFPGVALLTEEYINFMASNFDRLTVWQDGKKVDFTLEAYSIPGALVQKLTAKDVQVEMTLRFATPRTSLLETKITSNKPLDLVWDGELLEKLEAKEGKPLSDKTIAGEYPDYQRKISATRDGLKVTFGKVRATWDLLTSGESEYQVHKSLPVQTEINGNRFTSKAHINGSTTLYTTYSHLLTAQEVSKEQMQIRDILARPAFYLTASQQRWEEYLKKGLTNPDATPEQTRVAVKAIETLNGNWRSPGGAVKFNTVTPSVTGRWFSGNQTWPWDTWKQAFAMAHFNPDIAKENIRAVFSWQIQPGDSVRPQDVGFVPDLIAWNLSPERGGDGGNWNERNTKPSLAAWSVMEVYNVTQDKTWVAEMYPKLVAYHDWWLRNRDHNGNGVPEYGATRDKAHNTESGEMLFTVKKSLRLSCAASGFTFDNYAMNWVRQAPGKGLEWVSGINWNGRNTYYAESVKDRFTISRDNAKNTLYLQMNSLKSEDTAVYYCAKEIITSGGPTGKYDYWGQGTQVTVSSHHHHHHEPEA
# notes: also called MegaBody CA16388
# B3: CA15816 GFP-NbT54A/V55A (C-term. 6xHis + EPEA) (VHH)
# VHH: QVQLVESGGGLVQAGGSLRLSCAASGRTFSTAAMGWFRQAPGKERDFVAGIYWAAGSTYYADSAKGRFTISRDNAKNTVYLQMDSLKPEDTAVYYCAARRRGFTLAPTRANEYDYWGQGTQVTVSS
# modifications: biotinylated for BLI
# notes: T54A/V55A mutant of CA12760; also called Nb CA15816
# B4: CA11143 FIX Nanobody trapper (including C-terminal 6xHis+EPEA tag) (VHH)
# VHH: QVQLVESGGALVQPGGSLRLSCAASGFTFDNYAMNWVRQAPGKGLEWVSGINWNGRNTYYAESVKDRFTISRDNAKNTLYLQMNSLKSEDTAVYYCAKEIITSGGPTGKYDYWGQGTQVTVSS
# notes: also called Nb CA11143
# B5: CA16383 FIX functionalized Nanobody stripper (MegaBody MbCA10309^YgjK, including C-terminal 6xHis+EPEA tag) (other)
# chain: QVQLVESGGGLVKEETQSGLNNYARVVEKGQYDSLEIPAQVAASWESGRDDAAVFGFIDKEQLDKYVANGGKRSDWTVKFAENRSQDGTLLGYSLLQESVDQASYMYSDNHYLAEMATILGKPEEAKRYRQLAQQLADYINTCMFDPTTQFYYDVRIEDKPLANGCAGKPIVERGKGPEGWSPLFNGAATQANADAVVKVMLDPKEFNTFVPLGTAALTNPAFGADIYWRGRVWVDQFWFGLKGMERYGYRDDALKLADTFFRHAKGLTADGPIQENYNPLTGAQQGAPNFSWSAAHLYMLYNDFFRKQASGGGSGGGGSGGGGSGNADNYKNVINRTGAPQYMKDYDYDDHQRFNPFFDLGAWHGHLLPDGPNTMGGFPGVALLTEEYINFMASNFDRLTVWQDGKKVDFTLEAYSIPGALVQKLTAKDVQVEMTLRFATPRTSLLETKITSNKPLDLVWDGELLEKLEAKEGKPLSDKTIAGEYPDYQRKISATRDGLKVTFGKVRATWDLLTSGESEYQVHKSLPVQTEINGNRFTSKAHINGSTTLYTTYSHLLTAQEVSKEQMQIRDILARPAFYLTASQQRWEEYLKKGLTNPDATPEQTRVAVKAIETLNGNWRSPGGAVKFNTVTPSVTGRWFSGNQTWPWDTWKQAFAMAHFNPDIAKENIRAVFSWQIQPGDSVRPQDVGFVPDLIAWNLSPERGGDGGNWNERNTKPSLAAWSVMEVYNVTQDKTWVAEMYPKLVAYHDWWLRNRDHNGNGVPEYGATRDKAHNTESGEMLFTVKKSLRLSCATSGIGFSIYSMGWYRQAPGKERELVASIAGNEDKDYVESVKGRFTISRDYAKNTLYLEMSGLKFEDTAMYYCAAGLRRGVSLTPYYWGQGTQVTVSSHHHHHHEPEA
# notes: also called MegaBody CA16383
# How the values were obtained:
# [1] = biological target: EPEA-tagged GFP (GFP-EPEA) protein; test: BLI; analyte not stated
# [2] = biological target: T1, native human coagulation factor IX (human, UniProt P00740 47-461); test: NANEX column: 30 mL human recovered plasma recirculated over immobilised MegaBody CA16388; A280, SDS-PAGE and western blot [D00048 FIG. 43B; D00048 FIG. 43C]
# T1 construct: Native protein captured from plasma; also called FIX
# Description: The purification process was monitored by measuring the absorbance at 280 nm (Protein absorption) (FIGS. 43A-43C). The elution peak was collected in 750 μl fractions and analysed in SDS/PAGE gel and western blot including commercial human coagulation factor IX as a control (FIGS. 43A-43C).
# [3] = biological target: T2, CA16976 eGFP-tagged human recombinant androgen receptor (eGFP-6His-TEV-ARb) (human); test: NANEX column: HEK293T lysate with GFP-ARb on immobilised CA15816; A280/A488
# T2 construct: Expressed in HEK293T cells, captured from the lysate; also called GFP-ARb; eGFP-ARb
# Description: 10 mL of lysate was injected on this NANEX column. […] FIG. 45A) The elution of GFP-GR by this stripper was monitored by following the absorbance at 280 nm and 488 nm. […] The right peak eluted upon regeneration with 200 mM glycine at pH 2.3. FIG. 45B) SDS-PAGE of the different purification fractions, molecular weight marker (PageRuler™ Prestained Protein Ladder).
# Recombinant human eGFP-6His-TEV-AR was expressed using a pcDNA3.1+N-eGFP vector transfected into human HEK239T cells. Cells were transfected in 150×21 mm dishes (Nunclon™ Delta) using X-tremeGENE™ 9 DNA Transfection Reagent (XTG9-RO Roche) with a ratio 3:1 μL/μg DNA. After transfection, HEK239T cells were grown for 48 h at 37° C. and 5% CO₂. Cells from 3 plates were collected by pipetting and centrifugation, washed with PBS and resuspended in 10 mL lysis buffer 10 mM Hepes 7.5, 2.5 mM DTT, 1 mM EDTA, 20 mM Na₂MoO₄, 10% Glycerol (supplemented with protease inhibitors) before lysis using a Dounce homogenizer. […] Next, the column was washed with 10 CVs of washing buffer (10 mM Hepes 7.5, 2.5 mM DTT, 1 mM EDTA, 20 mM Na₂MoO₄, 10% Glycerol) using a syringe.
# [4] = biological target: T3, GFP protein (Aequorea victoria (Water jellyfish) …, UniProt P42212 1-238 = GFP); test: BLI
# T3 construct: Purified GFP used as BLI analyte, in crystals and in NANEX; also called Green fluorescent protein
# Description: (§1) Streptavidin-coated Octet® biosensors were used to capture biotinylated Nanobodies (1 μg/mL). Binding and dissociation isotherms at several GFP concentrations (1 nM to 5 μM range) were analyzed on an OctetRed (molecular devices). All assays were performed in Hepes 25 mM pH7.5, NaCl 150 mM supplemented with BSA 0.1% and Tween²⁰ 0.005% at room temperature.
# [5] = biological target: T4, CA16607 eGFP-tagged human recombinant glucocorticoid receptor (eGFP-6His-TEV-GR) (human); test: NANEX column: HEK293T lysate with GFP-GR on immobilised CA15816; A280/A488, SDS-PAGE, western blot [D00049 FIG. 44B]
# T4 construct: Expressed in HEK293T cells, captured from the lysate; also called GFP-GR; eGFP-GR
# [6] = biological target: T3, GFP protein; test: BLI (OctetRed), biotinylated Nb on streptavidin sensor, GFP as analyte
# Description: as §1
# [7] = biological target: T1, native human coagulation factor IX; test: NANEX column: 30 mL human plasma recirculated over immobilised CA11143; A280, SDS-PAGE and western blot [D00046 FIG. 42B; D00047 FIG. 42C]
# Description: (§2) 30 mL of human recovered plasma treated with ACD anticoagulant was loaded on this NANEX column by recirculation for 120 minutes. […] FIG. 42B) SDS-PAGE of representative fractions of the purification and FIG. 42C) the western blot of these fractions. MW, molecular weight marker (PageRuler™ Prestained Protein Ladder); and asterisk (*), commercial native human coagulation factor IX (used as control).
# (§3) The purification process was monitored by measuring the absorbance at 280 nm (Protein absorption) (FIGS. 42A-42C). The elution peak was collected in 750 μl fractions and the fractions were analyzed in SDS/PAGE gel and by western blot including a commercial human coagulation factor IX as a positive control (FIGS. 42A-42C). Regeneration of the column was obtained by 5 CV of 200 mM Glycine buffer pH 2.3.
# [8] = biological target: T1, native human coagulation factor IX; test: displacement of native factor IX from immobilised CA11143 (NANEX column) by 1 mg MegaBody CA16383; A280, SDS-PAGE and western blot [D00046 FIG. 42B; D00047 FIG. 42C]
# Description: as §2, §3
# T1 sequence (P00740 47-461 limits assumed): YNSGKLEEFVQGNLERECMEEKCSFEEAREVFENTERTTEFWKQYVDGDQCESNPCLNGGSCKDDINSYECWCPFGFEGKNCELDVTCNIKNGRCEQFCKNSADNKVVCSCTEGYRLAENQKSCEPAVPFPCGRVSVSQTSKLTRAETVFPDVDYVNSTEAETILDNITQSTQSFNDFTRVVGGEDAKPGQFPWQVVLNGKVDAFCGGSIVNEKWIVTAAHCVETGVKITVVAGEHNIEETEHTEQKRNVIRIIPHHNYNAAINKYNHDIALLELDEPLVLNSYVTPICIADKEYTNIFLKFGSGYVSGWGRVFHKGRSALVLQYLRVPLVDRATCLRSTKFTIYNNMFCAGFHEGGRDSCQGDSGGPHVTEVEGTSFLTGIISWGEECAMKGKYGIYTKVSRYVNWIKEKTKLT
# T4 sequence (chain, as listed by the source limits assumed): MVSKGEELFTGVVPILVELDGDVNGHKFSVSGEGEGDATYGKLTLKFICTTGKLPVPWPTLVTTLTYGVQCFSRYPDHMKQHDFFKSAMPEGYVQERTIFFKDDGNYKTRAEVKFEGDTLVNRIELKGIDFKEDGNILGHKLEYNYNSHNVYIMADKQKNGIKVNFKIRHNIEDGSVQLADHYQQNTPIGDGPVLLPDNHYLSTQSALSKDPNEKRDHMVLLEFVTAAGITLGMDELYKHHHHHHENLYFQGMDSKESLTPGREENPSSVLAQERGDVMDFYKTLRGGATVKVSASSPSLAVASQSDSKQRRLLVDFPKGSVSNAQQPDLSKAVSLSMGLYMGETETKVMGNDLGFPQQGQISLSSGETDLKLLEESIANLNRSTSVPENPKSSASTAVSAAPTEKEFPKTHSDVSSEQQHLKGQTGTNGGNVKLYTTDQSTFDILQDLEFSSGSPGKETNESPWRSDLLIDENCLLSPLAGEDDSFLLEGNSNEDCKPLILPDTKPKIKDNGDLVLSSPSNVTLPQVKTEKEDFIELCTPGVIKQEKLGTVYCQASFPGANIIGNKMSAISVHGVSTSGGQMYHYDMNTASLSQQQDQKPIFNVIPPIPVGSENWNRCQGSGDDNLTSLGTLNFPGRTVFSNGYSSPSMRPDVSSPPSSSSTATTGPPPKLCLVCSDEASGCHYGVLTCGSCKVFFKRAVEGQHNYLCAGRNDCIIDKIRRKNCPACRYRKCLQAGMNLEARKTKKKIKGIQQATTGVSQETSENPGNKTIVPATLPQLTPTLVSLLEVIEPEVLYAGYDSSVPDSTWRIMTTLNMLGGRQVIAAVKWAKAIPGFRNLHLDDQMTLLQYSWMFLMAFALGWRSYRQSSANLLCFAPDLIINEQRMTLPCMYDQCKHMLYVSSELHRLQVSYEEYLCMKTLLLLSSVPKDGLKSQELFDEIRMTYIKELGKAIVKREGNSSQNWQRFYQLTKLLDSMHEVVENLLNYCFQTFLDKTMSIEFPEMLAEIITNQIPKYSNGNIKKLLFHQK
# T2 sequence (chain, as listed by the source limits assumed): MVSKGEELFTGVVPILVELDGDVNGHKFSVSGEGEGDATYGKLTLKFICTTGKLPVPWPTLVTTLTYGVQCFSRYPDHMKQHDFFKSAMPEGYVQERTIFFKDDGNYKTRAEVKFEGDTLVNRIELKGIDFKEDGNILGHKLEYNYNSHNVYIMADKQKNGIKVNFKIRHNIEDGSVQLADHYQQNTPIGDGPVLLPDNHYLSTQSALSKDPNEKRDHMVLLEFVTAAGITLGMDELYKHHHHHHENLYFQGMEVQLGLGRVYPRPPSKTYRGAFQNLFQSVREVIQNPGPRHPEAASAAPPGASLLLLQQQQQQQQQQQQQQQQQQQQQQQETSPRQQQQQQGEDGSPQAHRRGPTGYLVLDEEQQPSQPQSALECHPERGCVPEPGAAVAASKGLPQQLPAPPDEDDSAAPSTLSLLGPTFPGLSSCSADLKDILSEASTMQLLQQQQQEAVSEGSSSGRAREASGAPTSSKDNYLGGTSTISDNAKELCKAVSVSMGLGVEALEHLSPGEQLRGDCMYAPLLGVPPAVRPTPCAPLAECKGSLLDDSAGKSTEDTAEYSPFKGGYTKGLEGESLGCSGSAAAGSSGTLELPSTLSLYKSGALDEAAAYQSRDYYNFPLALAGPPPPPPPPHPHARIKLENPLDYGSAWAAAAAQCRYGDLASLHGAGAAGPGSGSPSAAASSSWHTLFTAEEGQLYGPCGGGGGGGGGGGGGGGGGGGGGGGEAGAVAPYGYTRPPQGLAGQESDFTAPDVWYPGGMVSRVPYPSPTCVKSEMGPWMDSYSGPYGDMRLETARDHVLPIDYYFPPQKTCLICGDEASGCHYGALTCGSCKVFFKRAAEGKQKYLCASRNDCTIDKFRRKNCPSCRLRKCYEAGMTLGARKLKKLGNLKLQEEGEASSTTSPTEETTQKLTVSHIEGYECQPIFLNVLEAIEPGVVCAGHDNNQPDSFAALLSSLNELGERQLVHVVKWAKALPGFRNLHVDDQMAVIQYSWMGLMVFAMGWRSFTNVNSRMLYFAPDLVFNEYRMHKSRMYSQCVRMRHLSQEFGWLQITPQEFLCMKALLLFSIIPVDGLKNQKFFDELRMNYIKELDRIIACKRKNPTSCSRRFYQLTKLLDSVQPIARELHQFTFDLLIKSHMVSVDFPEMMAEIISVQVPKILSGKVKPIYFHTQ
binder,measurement,setting,value
B1,Kd,[1],60 nM
B2,binding result,[2],binds
B3,binding result,[3],binds
same,Half-time ratio (relative to the wt Nb CA12760),[4],70 fold
same,KD ratio (relative to the wt Nb CA12760),[4],50 fold
same,binding result,[5],binds
same,Kd,[6],2.7 nM
same,koff,[6],0.00225 s⁻¹
same,kon,[6],835000 M⁻¹ s⁻¹
B4,binding result,[7],binds
B5,binding result,[8],binds
